The results in this text go back to patent publication US20250163183A1 (COAGULANT THERAPEUTICS, published 2025).

In assay [1] the target is T1, human APC-PPACK (active site-blocked APC) (human, UniProt P04070 43-461, active site bound by the tripeptide inhibitor Phe-Pro-Arg-chloromethylketone (PPACK)).
T1 construct: Bought (Haematologic Technologies)
Kind of assay: ELISA.

In assay [2] the target is T2, human protein C (PC) zymogen (human, UniProt P04070 43-197; P04070 200-461).
T2 construct: Bought
Kind of assay: ELISA screen, PC-coated wells, OD450, n=2. (An ELISA detects its analyte on a solid surface through an enzyme-linked reagent.)

Assay [3] concerns the target T2, human protein C (PC) zymogen. Kind of assay: ELISA.

T2 sequence (P04070 43-197, chain 1 of 2): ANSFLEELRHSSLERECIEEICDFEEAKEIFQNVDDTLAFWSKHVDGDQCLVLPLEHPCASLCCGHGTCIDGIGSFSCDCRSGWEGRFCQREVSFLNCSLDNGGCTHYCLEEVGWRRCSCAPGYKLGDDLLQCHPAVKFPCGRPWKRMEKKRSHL
T2 sequence (P04070 200-461, chain 2 of 2): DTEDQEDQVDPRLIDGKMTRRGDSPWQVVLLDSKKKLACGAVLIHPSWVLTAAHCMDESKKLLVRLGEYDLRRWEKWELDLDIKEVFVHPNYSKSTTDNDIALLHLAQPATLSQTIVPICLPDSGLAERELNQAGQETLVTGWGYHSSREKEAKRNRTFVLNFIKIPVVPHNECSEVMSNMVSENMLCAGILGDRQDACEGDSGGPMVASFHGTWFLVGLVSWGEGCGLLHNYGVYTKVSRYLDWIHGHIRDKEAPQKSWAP
T1 sequence (P04070 other isoform, or with tags, fused parts or gaps): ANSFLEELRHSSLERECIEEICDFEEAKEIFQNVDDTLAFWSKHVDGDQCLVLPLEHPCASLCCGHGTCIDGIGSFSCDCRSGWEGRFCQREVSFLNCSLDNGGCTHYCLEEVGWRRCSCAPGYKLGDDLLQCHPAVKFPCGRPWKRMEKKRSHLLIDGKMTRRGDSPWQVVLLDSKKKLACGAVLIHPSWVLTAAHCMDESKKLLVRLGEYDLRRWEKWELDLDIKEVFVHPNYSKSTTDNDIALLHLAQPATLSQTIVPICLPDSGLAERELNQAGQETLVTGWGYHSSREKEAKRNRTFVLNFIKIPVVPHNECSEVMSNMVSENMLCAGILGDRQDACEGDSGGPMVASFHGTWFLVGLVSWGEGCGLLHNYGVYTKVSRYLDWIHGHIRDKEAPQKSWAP

B1: SR16983-R2-P2-G01 (VHH)
VHH: EVQLVESGGGLVQAGESLRLSCVVSGSRFRISGMGWYRQAPEKQRELVAAITRGGSTNYSDSVKGRFTISSDNAKNTVYLQMNSLKPDDTDVYYCAATVLDIPTMSTDDYWGQGTQVTVSS
On to B1, for which the results for the binding result in assay [1] and in assay [2] were “binds” and “no binding”, respectively.

B2: SR16983-R3P2B6 (VHH)
VHH: QLQLVESGGGLVQAGGSLRLACAASGFSFDDYAIGWFRQAPGKEREGVSCITSDGSTYYADSVKGRFTISSDNAKNTVYLQMNILKPEDTAVYYCARGGLLLPKPELFEYWGQGTQVTVSS
Turning to B2, the binding result in assay [3] is recorded as “no binding”; in assay [1], “binds”.

B3: SR16983-R2-P4-B05 (VHH)
VHH: QVQLVESGGGLVQAGGSLRLSCAASGRVFGTYVMGWFRQAPGKEREFVAAFSRSTGHITYADSVKGRFTISRDDAKNTLYLQMNSLKPEDTAVYYCATRASINYNYANWPYWGQGTQVTVSS
B3: the binding result is given as “no binding” in assay [3] and “binds” in assay [1].

B4: SR16983-R3-P4-E04 (VHH)
VHH: QVQLVESGGGLVQAGGSLRLSCAASGRTVGSYAVGWFRQAPGKEREFLAASSRSTGNTVYADSVKGRFTISRDDAKNTLYLQMNSLKPEDTAVYYCATRASINYNYANWPYWGQGTQVTVSS
For B4, the results for the binding result in assay [3] and in assay [1] were “no binding” and “binds”, respectively.

B5: SR16983-R2-P4-G01 (VHH)
VHH: QLQLVESGGGLVQAGGSLRLSCAASGRTVGSYVMGWFRQAPGKEREFLAANSRSTGNTVYADSVKGRFTISRDDAKNTLYLQMNSLKPEDTAVYYCATRASINYNYANWPYWGQGTQVNVSS
B5: the binding result in assay [3] is “no binding”; in assay [1], “binds”.

B6: SR16983-R3P2A9 (VHH)
VHH: QVQLVESGGGLVQAGGSLRLSCAASGRTVGSYVMGWFRQAPGKERELLAASSRSTGNTVYADSVKGRFTISRDDAKNTVFLQMNSLKPEDTAVYYCAARASINYNYANWPYWGQGTQVTVSP
For the molecule B6, the figures for the binding result in assay [3] and in assay [1] were “no binding” and “binds”, respectively.

B7: SR16983-R3P2G9 (VHH)
VHH: QVQLVESGGGLVQPGGSLRLSCAASGRTFGSYVMGWFRQAPGKEREFVAAASRSTGNTVYPDSVKGRFTISRDDAKNTLYLQMNSLKPEDTAVYYCAARASINYNYANWPYWGQGTQVTVSS
Regarding B7, the binding result was “no binding” in assay [3] and “binds” in assay [1].

B8: SR16983-R2P1C10 (VHH)
VHH: QLQLVESGGGLVQPGGSLRLSCAASGRIFGSYVMGWFRQAPGKEHEFVAASSRSTGNTVYLDSVKGRFTISRDDAKNTLYLQMNSLKPEDTAVYYCATRASINYNYANWPYRGQGTQVTVSS
Turning to B8, the binding result is “no binding” in assay [3] and “binds” in assay [1].

B9: SR16983-R3-P4-G01 (VHH)
VHH: QLQLVESGGGLVQAGGSLRLSCAASGRTFVGSYVMGWFRQAPGKEREFVAASSRSTGNTVYLDSVKGRFTISRDDAKNMLYLQMNSLKPEDTAVYYCATRASINYNYANWPYWGQGTQVTVSS
In the case of B9, the binding result is listed as “no binding” in assay [3] and “binds” in assay [1].

B10: SR16983-R3P2E05 (VHH)
VHH: QVQLVESGGGLVQAGGSLRLSCTTSGSTFSITAGGWYRQAPGEQRELVADVANDGSTSYAESVKGRFTISRDNAKNIVELQMSSLELEDTAVYVCFVVGISDSTPRPRAYWGQGTQVTVAS
Consider B10, for which the binding result in assay [3] is “no binding”; in assay [1] it was “binds”.

B11: SR16983-R2P1C11 (VHH)
VHH: QLQLVESGGGLVQSGGSLRLSCTASGSTVRVTAGGWYRQAPGNERELVADIDNGGRPTYADSVKGRFTISRDNAKNAVDLQMNNLKPEDTAVYYCFVIAIPDSAPRPRAYWGQGTQVTVSS
Take B11: the figures for the binding result in assay [3] and in assay [1] were “no binding” and “binds”, respectively.

B12: SR16983-R3-P2-A08 (VHH)
VHH: QVQLVESGGGLVQAGGSLRLSCAASGRTSSNYNMGWFRQAPGKEREFVAAIPWTGSTTYYADPVKGRFTISRDSTKNTGDLQMNSLKPEDTAVYYCALGRRENYYALLQQRGYDYWGQGTQVTVSS
Turning to B12, the binding result in assay [3] was “no binding”; in assay [1] it was “binds”.

B13: SR16983-R2-P4-G02 (VHH)
VHH: QLQLVESGGGLVQAGGSLRLSCAASGTTFSFVYMGWYRQAPGNQRDLVARISSDGSTNYADSVKGRFTISGDNAKNTVYLQMNSLRPEDTARYYCFYNGHLNKWGQGTQVTVSS
Regarding B13, the binding result in assay [3] is listed as “no binding”; in assay [1] it was “binds”.

B14: SR16983-R2P1F04 (VHH)
VHH: QLQLVESGGGLVQAGGSLRLSCAASRTTFSFNYMGWYRQAPGNQRDLVARISSGGITNYADSVKGRFTISGDNAKNTVYLQMNSLKPEDTARYYCFYNGHLNKWGQGTQVTVSS
B14: the binding result in assay [3] is reported as “no binding”; in assay [1] it was “binds”.

B15: SR16983-R3-P5-A11 (VHH)
VHH: QVQLVESGGGLVQAGGSLGLSCAASGTTFSFVYMGWYRQAPGNQRDLVARISSDGSTNYADSVKGRFTISGDNAKNTVYLQMNNLKPEDTARYYCFYNGHVNKWGQGTQVTVSS
As to B15, the binding result in assay [3] is given as “no binding”; in assay [1], “binds”.

B16: SR16983-R3-P5-A06 (VHH)
VHH: QLQLVESGGGLVQAGGSLRLSCVASGTTFTIEDIGWYRLAPGKQRELVAIISGGNTNYADSVKGRFTISRDNAKNTVYLQMNSLKPEDTAVYYCNGRTKATVKWGRGTQVTVSS
B16: the values for the binding result in assay [1] and in assay [2] were “binds” and “no binding”, respectively.

B17: SR16983-R3P2E7 (VHH)
VHH: QLQLVESGGGLVQAGGSLRLSCVASGTTFTIEDIGWYRLAPGKQRELVAIISGGNTNYADSVKGRFTISRDNAKNTVFLQMNSLKPEDTAVYYCNARTKATAKWGRGIQVTVSS
For B17, the binding result in assay [3] was “no binding”; in assay [1] it was “binds”.

B18: SR16983-R2-P2-D05 (VHH)
VHH: QVQLVESGGGLVQPGGSLTLSCAASGTIESINDMGWYRQAPGKQRELVAAITSGGSTNYADSVKGRFTISRDNAKNTVYLQMNSLKPEDTAVYYCNAEVKRHYYYDSAGHRYWGQGTQVTVSS
With B18, the binding result was “no binding” in assay [3] and “binds” in assay [1].

B19: SR16983-R2-P2-C04 (VHH)
VHH: QLQLVESGGGLVQAGGSLRLSCAASRTTFRINGVDWYRQVPGKQRELVATASSDGPTNYAESVKGRFTISRDNAKNTVYLQMNSLKPEDTAVYYCRIVLPSRIIWGQGTQVTVSS
B19: the binding result was “binds” in assay [1] and “no binding” in assay [2].

B20: SR16983-R2-P2-G09 (VHH)
VHH: QLQLVESGGGLVQAGGSLRLSCVASGTTFSIEETYWYRLAPGKQRELVAVISGGGNTNYADSVKGRFTISRDNAKNTVYLQMNSLKPEDTAVYYCSARTIATVKWGQGIQVTVSS
Consider B20, for which the binding result in assay [3] is “no binding”; in assay [1], “binds”.

B21: SR16983-R2-P2-D08 (VHH)
VHH: QLQLVESGGGLVQAGDSLRLSCALSGLAASTYAMAWFRQAPGKEREFVSVIDWKGDSTTANSVKGRFTISRDHGKNTVYLQMNSLQPEDTALYYCAARGSPGYVAKLYAHWGRGTQVTVSS
Consider B21, for which the binding result in assay [3] is on record as “no binding”; in assay [1], “binds”.

B22: SR16983-R3-P3-F01 (VHH)
VHH: EVQLVESGGGLVQAGDSLRLSCARSGLTASTYAMAWFRQAPGKEREFVSVIDWKGDTTYANSVKGRFTISRDNGKNTVYLQMNSLQPEDTALYYCAARGSPAYVARLYAYWGRGTQVTVSS
On to B22, for which the binding result was “no binding” in assay [3] and “binds” in assay [1].

B23: SR16983-R3-P4-A08 (VHH)
VHH: QLQLVESGGGLVQAGDSLRLSCVFSGLTASTYAMAWFRQAPGKEREFVSVIDWKGDTTYANSVKGRFTISRDNGNKTVYLQMNSLQPEDTALYYCAARGSPGYVARLYAHWGRGTQVTVSS
For the molecule B23, the values for the binding result in assay [3] and in assay [1] were “no binding” and “binds”, respectively.

B24: SR16983-R2P1C08 (VHH)
VHH: QVQLVESGGGLVQPGGSLRLSCAASGRTFSNYAMGWFRQAPGKERRFVAGISRDDTSTSYADSVKGRFTILRDRSKNTVDLQMNSLKPEDTAIYYCAAARGIYGEISRYTGDYDSWGQGTQVTVSS
For B24, the binding result in assay [1] is on record as “binds”; in assay [2], “no binding”.
